Assay results from publication PMC10663500, “High-throughput analysis system of interaction kinetics for data-driven antibody design” (Scientific Reports, 2023).

Molecular target: T1, human programmed cell death protein 1 (hPD-1) C93S (aa 24-167) (Homo sapiens, UniProt Q15116, C93S)
T1 construct: made as a fusion with a TEV site and human Fc; the Fc was cut off with TEV protease; source: Expi293F, purified (Protein A, TEV cleavage of Fc, SEC; monomer fractions); not shown: Fc (human), C-terminal, cleaved
T1 sequence (Q15116 24-167 C93S): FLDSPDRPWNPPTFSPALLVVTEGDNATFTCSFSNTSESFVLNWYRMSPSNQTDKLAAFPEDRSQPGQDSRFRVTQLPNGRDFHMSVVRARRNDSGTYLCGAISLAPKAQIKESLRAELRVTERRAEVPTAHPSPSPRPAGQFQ
Assay: SPR; Carterra LSA; Fab from the ammonium sulfate precipitate of the culture supernatant immobilised on a NiHC200M chip; hPD-1 (1-1024 nM) or mPD-1-Fc (4-1024 nM) as analyte, fourfold dilution series, no regeneration; HBS-EP pH 7.4, 25 °C; medians over the spots of a construct, KD = koff/kon
Settings: one partner purified
Method in brief: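 Fabs, ammonium sulfate-precipitated from Brevibacillus supernatants and redissolved in HBS-EP, were captured in duplicate on a NiHC200M chip on a Carterra LSA at 25 °C. Fourfold series of human PD-1 (1–1024 nM) or mouse PD-1-Fc (4–1024 nM) were run without regeneration, with association for 10 min and dissociation for 5 min. Rates were fitted with the kdka model, choosing the better of slow- or fast-dissociation settings, and unconfirmed binders were given kon 10^3 […] and koff 10^−2 s^−1. The dissociation constant KD is koff/kon based on per-construct medians.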

Binder	Kd [nM]	koff [s⁻¹]	kon [M⁻¹ s⁻¹]
toripalimab Fab H.Y108A (Fab, V domains shown, heavy chain of Sm3 with this change; numbers count from the chain's first residue; as the light chain of Sm3; source: Brevibacillus, culture supernatant (ammonium sulfate precipitate); not shown: 6xHis, C-terminal, kept; 6xHN, C-terminal, kept) VH: QGQLVQSGAEVKKPGASVKVSCKASGYTFTDYEMHWVRQAPIHGLEWIGVIESETGGTAYNQKFKGRVTITADKSTSTAYMELSSLRSEDTAVYYCAREGITTVATTAYWYFDVWGQGTTVTVSS VL: DVVMTQSPLSLPVTLGQPASISCRSSQSIVHSNGNTYLEWYLQKPGQSPQLLIYKVSNRFSGVPDRFSGSGSGTDFTLKISRVEAEDVGVYYCFQGSHVPLTFGQGTKLEIK	48.6	0.000235	4840
toripalimab Fab H.E33Y (Fab, V domains shown, heavy chain of Sm3 with this change; numbers count from the chain's first residue; as the light chain of Sm3; source: Brevibacillus, culture supernatant (ammonium sulfate precipitate); not shown: 6xHis, C-terminal, kept; 6xHN, C-terminal, kept) VH: QGQLVQSGAEVKKPGASVKVSCKASGYTFTDYYMHWVRQAPIHGLEWIGVIESETGGTAYNQKFKGRVTITADKSTSTAYMELSSLRSEDTAVYYCAREGITTVATTYYWYFDVWGQGTTVTVSS VL: DVVMTQSPLSLPVTLGQPASISCRSSQSIVHSNGNTYLEWYLQKPGQSPQLLIYKVSNRFSGVPDRFSGSGSGTDFTLKISRVEAEDVGVYYCFQGSHVPLTFGQGTKLEIK	430	0.00629	14600
toripalimab Fab H.H35A (Fab, V domains shown, heavy chain of Sm3 with this change; numbers count from the chain's first residue; as the light chain of Sm3; source: Brevibacillus, culture supernatant (ammonium sulfate precipitate); not shown: 6xHis, C-terminal, kept; 6xHN, C-terminal, kept) VH: QGQLVQSGAEVKKPGASVKVSCKASGYTFTDYEMAWVRQAPIHGLEWIGVIESETGGTAYNQKFKGRVTITADKSTSTAYMELSSLRSEDTAVYYCAREGITTVATTYYWYFDVWGQGTTVTVSS VL: DVVMTQSPLSLPVTLGQPASISCRSSQSIVHSNGNTYLEWYLQKPGQSPQLLIYKVSNRFSGVPDRFSGSGSGTDFTLKISRVEAEDVGVYYCFQGSHVPLTFGQGTKLEIK	2470	0.00804	3250
toripalimab Fab L.H31Y (Fab, V domains shown, as the heavy chain of Sm3; light chain of Sm3 with this change; numbers count from the chain's first residue; source: Brevibacillus, culture supernatant (ammonium sulfate precipitate); not shown: 6xHis, C-terminal, kept; 6xHN, C-terminal, kept) VH: QGQLVQSGAEVKKPGASVKVSCKASGYTFTDYEMHWVRQAPIHGLEWIGVIESETGGTAYNQKFKGRVTITADKSTSTAYMELSSLRSEDTAVYYCAREGITTVATTYYWYFDVWGQGTTVTVSS VL: DVVMTQSPLSLPVTLGQPASISCRSSQSIVYSNGNTYLEWYLQKPGQSPQLLIYKVSNRFSGVPDRFSGSGSGTDFTLKISRVEAEDVGVYYCFQGSHVPLTFGQGTKLEIK	17.2	0.000663	38600
toripalimab Fab H.T102A (Fab, V domains shown, heavy chain of Sm3 with this change; numbers count from the chain's first residue; as the light chain of Sm3; source: Brevibacillus, culture supernatant (ammonium sulfate precipitate); not shown: 6xHis, C-terminal, kept; 6xHN, C-terminal, kept) VH: QGQLVQSGAEVKKPGASVKVSCKASGYTFTDYEMHWVRQAPIHGLEWIGVIESETGGTAYNQKFKGRVTITADKSTSTAYMELSSLRSEDTAVYYCAREGIATVATTYYWYFDVWGQGTTVTVSS VL: DVVMTQSPLSLPVTLGQPASISCRSSQSIVHSNGNTYLEWYLQKPGQSPQLLIYKVSNRFSGVPDRFSGSGSGTDFTLKISRVEAEDVGVYYCFQGSHVPLTFGQGTKLEIK	65.9	0.000404	6130
toripalimab Fab L.H31A (Fab, V domains shown, as the heavy chain of Sm3; light chain of Sm3 with this change; numbers count from the chain's first residue; source: Brevibacillus, culture supernatant (ammonium sulfate precipitate); not shown: 6xHis, C-terminal, kept; 6xHN, C-terminal, kept) VH: QGQLVQSGAEVKKPGASVKVSCKASGYTFTDYEMHWVRQAPIHGLEWIGVIESETGGTAYNQKFKGRVTITADKSTSTAYMELSSLRSEDTAVYYCAREGITTVATTYYWYFDVWGQGTTVTVSS VL: DVVMTQSPLSLPVTLGQPASISCRSSQSIVASNGNTYLEWYLQKPGQSPQLLIYKVSNRFSGVPDRFSGSGSGTDFTLKISRVEAEDVGVYYCFQGSHVPLTFGQGTKLEIK	57.3	0.000589	10300
toripalimab Fab H.I101A (Fab, V domains shown, heavy chain of Sm3 with this change; numbers count from the chain's first residue; as the light chain of Sm3; source: Brevibacillus, culture supernatant (ammonium sulfate precipitate); not shown: 6xHis, C-terminal, kept; 6xHN, C-terminal, kept) VH: QGQLVQSGAEVKKPGASVKVSCKASGYTFTDYEMHWVRQAPIHGLEWIGVIESETGGTAYNQKFKGRVTITADKSTSTAYMELSSLRSEDTAVYYCAREGATTVATTYYWYFDVWGQGTTVTVSS VL: DVVMTQSPLSLPVTLGQPASISCRSSQSIVHSNGNTYLEWYLQKPGQSPQLLIYKVSNRFSGVPDRFSGSGSGTDFTLKISRVEAEDVGVYYCFQGSHVPLTFGQGTKLEIK	107	0.000592	5550
toripalimab Fab H.T103Y (Fab, V domains shown, heavy chain of Sm3 with this change; numbers count from the chain's first residue; as the light chain of Sm3; source: Brevibacillus, culture supernatant (ammonium sulfate precipitate); not shown: 6xHis, C-terminal, kept; 6xHN, C-terminal, kept) VH: QGQLVQSGAEVKKPGASVKVSCKASGYTFTDYEMHWVRQAPIHGLEWIGVIESETGGTAYNQKFKGRVTITADKSTSTAYMELSSLRSEDTAVYYCAREGITYVATTYYWYFDVWGQGTTVTVSS VL: DVVMTQSPLSLPVTLGQPASISCRSSQSIVHSNGNTYLEWYLQKPGQSPQLLIYKVSNRFSGVPDRFSGSGSGTDFTLKISRVEAEDVGVYYCFQGSHVPLTFGQGTKLEIK	< 2.91	< 1e-05	3430
toripalimab Fab H.D113A (Fab, V domains shown, heavy chain of Sm3 with this change; numbers count from the chain's first residue; as the light chain of Sm3; source: Brevibacillus, culture supernatant (ammonium sulfate precipitate); not shown: 6xHis, C-terminal, kept; 6xHN, C-terminal, kept) VH: QGQLVQSGAEVKKPGASVKVSCKASGYTFTDYEMHWVRQAPIHGLEWIGVIESETGGTAYNQKFKGRVTITADKSTSTAYMELSSLRSEDTAVYYCAREGITTVATTYYWYFAVWGQGTTVTVSS VL: DVVMTQSPLSLPVTLGQPASISCRSSQSIVHSNGNTYLEWYLQKPGQSPQLLIYKVSNRFSGVPDRFSGSGSGTDFTLKISRVEAEDVGVYYCFQGSHVPLTFGQGTKLEIK	< 1.79	< 1e-05	5600
